This note sets out measurements from patent US20210347865A1 (STATEN BIOTECHNOLOGY B V, published 2021).

Test [1] deals with T1, recombinant cynomolgus ApoC3 (cynomolgus monkey, UniProt P18659 21-99, biotinylated in the captured-antigen assays (Tables 6 and 8); sites not stated).
T1 construct: No cleavage site is stated, so none is applied; also called rcyApoC3; bio-rcyApoC3
The test is described as follows: SPR, biotinylated antigen captured on streptavidin chip, IgG as analyte, pH 7.4. For orientation: SPR reads the build-up and loss of mass on a sensor chip optically.

Test [2] has as its target T2, native human ApoC3 (human, UniProt P02656 21-99, biotinylated in the captured-antigen assays (Tables 6 and 8); sites not stated).
T2 construct: also called nhuApoC3; native huApoC3
The test is described as follows: SPR, biotinylated antigen captured on streptavidin chip, IgG as analyte, pH 7.4; footnote: n/a: not applicable; below the limits of detection kd: 1E-06 1/s.

The target in test [3] is T1, recombinant cynomolgus ApoC3. The test is described as follows: SPR, antigen immobilized on CM5 chip, IgG as analyte, pH 7.4.
For test [4], the target named is T2, native human ApoC3. Briefly: SPR, IgG captured via anti-human Fc, ApoC3 analyte 400 nM. Here is the method:
(§1) Immobilization was performed in accordance with the method provided by Biacore in the NHS/EDC kit (Biacore AB). Briefly, after activation of the chip, a solution of 30 μg/ml anti-human Fcγ antibody in 10 mM acetate buffer with pH 5.0 was injected until the surface density reached approximately 10,000 RU. […] Following antibody capture, 100 μl of HBS-EP buffer was injected and passed through the flow cells at 30 μl/min. To bind target, 60 μl of 400 nM, 200 nM, 100 nM, or 50 nM ApoC3 protein in HBS-EP buffer was injected. An off-rate wash was performed by injection of HBS-EP buffer at 30 μl/min for 5 min. After dissociation, the flow cell surfaces were regenerated by injecting 20 μl of 10 mM glycine at pH 1.5.
(§2) The resulting sensorgrams were analysed with BIAevaluation 4.1 software using the Langmuir 1:1 binding model to derive binding kinetics. Data was zero adjusted and the reference cell sensorgrams were subtracted. A no-analyte blank assay was used for double referencing the sensorgrams corresponding to nhuApoC3 and rcyApoC3 injections. The dissociation and association phase sensorgrams were fitted separately for the 4 different concentration curves. Sensorgrams were excluded from the fitting if maximum RU values were below the limit of detection (i.e., <5 RU). SPR signals were too low to calculate kinetic parameters for […].

Test [5] addresses T1, recombinant cynomolgus ApoC3. The test is described as above. On the procedure:
as §1, §2

Test [6] addresses T2, native human ApoC3. The test is described as follows: SPR, IgG captured via anti-human Fc, ApoC3 analyte 100 nM. On the procedure:
as §1, §2

The target in test [7] is T1, recombinant cynomolgus ApoC3. The description is as above. On the procedure: as §1, §2
Test [8] addresses T2, native human ApoC3. Briefly: SPR, IgG captured via anti-human Fc, ApoC3 analyte 200 nM. Here is the method:
as §1, §2

The target of test [9] is T1, recombinant cynomolgus ApoC3. The description is as above. Here is the method: as §1, §2
Test [10] deals with T2, native human ApoC3. The test is described as follows: SPR, antigen immobilized on CM5 chip, IgG as analyte, pH 7.4; footnote: n/a: not applicable; below the limits of detection kd: 1E-06 1/s.
The target of test [11] is T1, recombinant cynomolgus ApoC3. Briefly: SPR, IgG captured via anti-human Fc, ApoC3 analyte 50 nM. On the procedure: as §1, §2
Test [12] has as its target T2, native human ApoC3. Briefly: SPR, Table 9 ('29A6-Nhance as the captured antigen'), analyte 0.78-25 nM, pH 7.4. On the procedure: (§3) For the captured antigen approach, biotinylated native human ApoC3 was captured on a streptavidin coated chip (GE Healthcare #BR100032) at pH 7.4. In accordance with the methods provided by Biacore, 20 μl of 10 μg/ml biotinylated human ApoC3 was injected until the surface density reached approximately 500 RU. SPR methods and data analysis were followed as described in Example 2.1. SPR was also performed using these methods with the 29A06-Nhance antibody as the captured antigen. The 29A06-Nhance antibody comprises the heavy chain amino acid sequence set forth in SEQ ID NO: 38 and the light chain amino acid sequence set forth in SEQ ID NO: 50.
(§4) Similarly to the immobilized antigen approach, most of the clones had high affinity towards the human target and low off-rate values.

Test [13] deals with T1, recombinant cynomolgus ApoC3. The description is as above. On the procedure: as §3, §4

T1 sequence (P18659 21-99 limits assumed): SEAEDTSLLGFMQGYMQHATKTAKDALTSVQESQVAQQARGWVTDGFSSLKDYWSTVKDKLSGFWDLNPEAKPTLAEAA
T2 sequence (P02656 21-99): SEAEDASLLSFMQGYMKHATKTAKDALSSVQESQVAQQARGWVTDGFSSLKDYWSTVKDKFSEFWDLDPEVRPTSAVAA

B1: 29B03 IgG (antibody, V domains shown)
VH: QLQLVESGGGLVQPGGSLRLSCAASGFTFGTYSMRWVRQVPRKALEWVSSISTDGGGTAYRDSVKGRFTISRDNAKNTLYLQMNNLKPEDTAIYYCVIAGYSDWGQGTQVTVSS
VL: DVVLTQTPGSLSVVPGESASISCKAGQNLVHPDGKTYLYWLLQKPGQSPQRLIYQVSNRDSGVPDRFTGSGSGTDFTLKISGVKVEDAGVYYCAQGTYWPKTFGQGTKLEIK
The term Kd denotes a measure of binding affinity in units of concentration. As usually defined, the koff is the rate constant with which the complex falls apart. The kon is the second-order rate constant of association. On to B1, for which the Kd was 0.33 nM in test [1]; 0.18 nM in test [3]; 0.401 nM with native human ApoC3 [4]; 367 nM in test [5]; 0.336 nM with native human ApoC3 [6]; 385 nM in [7]. In addition, the Kd came out at 0.35 nM in the test with native human ApoC3 [8], 297 nM in test [9] and 190 nM in test [11]. The off-rate constant (koff) in test [1] is 0.000104 s⁻¹; in the test with native human ApoC3 [2], < 1e-06 s⁻¹; in test [3], 6.7e-05 s⁻¹; with native human ApoC3 [4] it was 8.63e-05 s⁻¹; in test [5] it was 0.0145 s⁻¹; with native human ApoC3 [6] it was 8e-05 s⁻¹. Further, the koff in test [7] was 0.014 s⁻¹; with native human ApoC3 [8] it was 8.44e-05 s⁻¹; in [9] it was 0.0137 s⁻¹; with native human ApoC3 [10], < 1e-06 s⁻¹; in test [11], 0.0127 s⁻¹. Moreover, the kon in test [1] amounted to 320000 M⁻¹ s⁻¹; in test [3] it was 380000 M⁻¹ s⁻¹; with native human ApoC3 [4] it was 215000 M⁻¹ s⁻¹; in test [5], 39600 M⁻¹ s⁻¹; with native human ApoC3 [6] it was 238000 M⁻¹ s⁻¹; in [7], 36300 M⁻¹ s⁻¹. In addition, the kon in the test with native human ApoC3 [8] was 241000 M⁻¹ s⁻¹; in test [9], 46100 M⁻¹ s⁻¹; in test [11] it was 66800 M⁻¹ s⁻¹.

B2: 29A06-Nhance antibody (antibody, human IgG1, kappa, V domains shown)
VH: B1 VH
VL: DVVLTQTPGSLSVVPGESASISCKASQNLVHSNGKTYLYWLLQKPGQSPQRLIYQVSNRGSEVPDRFTGSGSGTDFTLKISGVKAEDAGVYYCAQGTYWPKTFGQGTKLEIKR
notes: IgG1 heavy chain with the Nhance Fc variant, and a kappa light chain; This is probably a print error; also called mAb 29A6-Nhance; 29A6-Nhance
In the test with native human ApoC3 [12], B2 had an equilibrium dissociation constant (Kd) of 0.023 nM and a kon of 770000 M⁻¹ s⁻¹. The Kd in test [13] worked out at 0.675 nM.
